Data from patent publication CN116199779A (BEIJING DONGFANG BIOTECH CO LTD; BEIJING JINGYI TAIXIANG …, dated 2023).
Where two headings read alike, the source gives them in different places.

Legend:
LILRB4抗原 (人LILRB4蛋白胞外段) [1] = target: T1, LILRB4抗原 (人LILRB4蛋白胞外段) (human, UniProt Q8NHJ6 22-259); test: ELISA, coated LILRB4, anti-human IgG-HRP
T1 construct: extracellular domain; also called 白细胞免疫球蛋白样受体亚家族B成员4

THP-1细胞表面的LILRB4 [2] = target: T2, THP-1细胞表面的LILRB4 (human, UniProt Q8NHJ6 22-448); test: flow cytometry on THP-1 cells
T2 construct: whole, on cells; Endogenous LILRB4 on THP-1 cells; also called 人单核细胞白血病细胞(THP-1)表面LILRB4

THP-1细胞表面的LILRB4 [3] = target: T2, THP-1细胞表面的LILRB4; test: cell-based or functional assay
THP-1细胞表面的LILRB4 [4] = target: T2, THP-1细胞表面的LILRB4; test: flow cytometry on THP-1 cells, FITC anti-mouse IgG
LILRB4抗原 (人LILRB4蛋白胞外段) [5] = target: T1, LILRB4抗原 (人LILRB4蛋白胞外段); test: ELISA, coated LILRB4, anti-mouse IgG-HRP
THP-1细胞表面的LILRB4 [6] = target: T2, THP-1细胞表面的LILRB4; test: flow cytometry competition on THP-1 cells; competitor FITC-labelled ApoE
LILRA4 [7] = target: T3, LILRA4 (UniProt P59901 24-446, limits assumed); test: ELISA, coated protein 100ng/well
T3 construct: construct not described

LILRA5 [8] = target: T4, LILRA5 (UniProt A6NI73 42-268, limits assumed); test: ELISA, coated protein 100ng/well
T4 construct: construct not described

LILRB1 [9] = target: T5, LILRB1 (UniProt Q8NHL6 24-461, limits assumed); test: ELISA, coated protein 100ng/well
T5 construct: construct not described

LILRB2 [10] = target: T6, LILRB2 (UniProt Q8N423 22-460, limits assumed); test: ELISA, coated protein 100ng/well
T6 construct: construct not described

LILRB3 [11] = target: T7, LILRB3 (UniProt O75022 24-443, limits assumed); test: ELISA, coated protein 100ng/well
T7 construct: construct not described

LILRA3 [12] = target: T8, LILRA3 (UniProt Q8N6C8 24-439); test: ELISA, coated protein 100ng/well
T8 construct: construct not described

LILRA6 [13] = target: T9, LILRA6 (UniProt Q6PI73 24-447, limits assumed); test: ELISA, coated protein 100ng/well
T9 construct: construct not described

LILRA2 [14] = target: T10, LILRA2 (UniProt Q8N149 24-449, limits assumed); test: ELISA, coated protein 100ng/well
T10 construct: construct not described

LILRA1 [15] = target: T11, LILRA1 (UniProt O75019 17-461, limits assumed); test: ELISA, coated protein 100ng/well
T11 construct: construct not described

LILRB5 [16] = target: T12, LILRB5 (UniProt O75023 24-458, limits assumed); test: ELISA, coated protein 100ng/well
T12 construct: construct not described

LILRA4 [17] = target: T3, LILRA4; test: ELISA, coated protein 100ng/well, antibody 50μg/mL
LILRA5 [18] = target: T4, LILRA5; test: ELISA, coated protein 100ng/well, antibody 50μg/mL
LILRB1 [19] = target: T5, LILRB1; test: ELISA, coated protein 100ng/well, antibody 50μg/mL
LILRB2 [20] = target: T6, LILRB2; test: ELISA, coated protein 100ng/well, antibody 50μg/mL
LILRB4抗原 (人LILRB4蛋白胞外段) [21] = target: T1, LILRB4抗原 (人LILRB4蛋白胞外段); test: ELISA, coated protein 100ng/well, antibody 50μg/mL
LILRB3 [22] = target: T7, LILRB3; test: ELISA, coated protein 100ng/well, antibody 50μg/mL
LILRA3 [23] = target: T8, LILRA3; test: ELISA, coated protein 100ng/well, antibody 50μg/mL
LILRA6 [24] = target: T9, LILRA6; test: ELISA, coated protein 100ng/well, antibody 50μg/mL
LILRA2 [25] = target: T10, LILRA2; test: ELISA, coated protein 100ng/well, antibody 50μg/mL
LILRA1 [26] = target: T11, LILRA1; test: ELISA, coated protein 100ng/well, antibody 50μg/mL
LILRB5 [27] = target: T12, LILRB5; test: ELISA, coated protein 100ng/well, antibody 50μg/mL
THP-1细胞表面的LILRB4 [28] = target: T2, THP-1细胞表面的LILRB4; test: cell-based or functional assay; remark: listed apart in the source
THP-1细胞表面的LILRB4 [29] = target: T2, THP-1细胞表面的LILRB4; test: flow cytometry competition on THP-1 cells; competitor FITC-labelled ApoE; remark: listed apart in the source
THP-1细胞表面的LILRB4 [30] = target: T2, THP-1细胞表面的LILRB4; test: cell-based or functional assay; remark: listed apart in the source

T7 sequence (O75022 24-443 limits assumed): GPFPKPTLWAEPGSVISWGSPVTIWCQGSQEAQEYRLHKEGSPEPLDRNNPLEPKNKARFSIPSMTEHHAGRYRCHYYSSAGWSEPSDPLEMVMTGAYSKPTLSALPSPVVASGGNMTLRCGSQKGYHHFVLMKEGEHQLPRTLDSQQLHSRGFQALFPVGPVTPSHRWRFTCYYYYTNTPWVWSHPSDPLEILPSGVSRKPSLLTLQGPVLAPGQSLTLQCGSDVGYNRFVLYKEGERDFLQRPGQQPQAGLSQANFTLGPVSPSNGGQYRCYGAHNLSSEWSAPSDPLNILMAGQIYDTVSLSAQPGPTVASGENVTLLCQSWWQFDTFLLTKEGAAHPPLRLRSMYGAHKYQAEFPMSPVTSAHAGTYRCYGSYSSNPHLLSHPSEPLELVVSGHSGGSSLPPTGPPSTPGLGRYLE
T11 sequence (O75019 17-461 limits assumed): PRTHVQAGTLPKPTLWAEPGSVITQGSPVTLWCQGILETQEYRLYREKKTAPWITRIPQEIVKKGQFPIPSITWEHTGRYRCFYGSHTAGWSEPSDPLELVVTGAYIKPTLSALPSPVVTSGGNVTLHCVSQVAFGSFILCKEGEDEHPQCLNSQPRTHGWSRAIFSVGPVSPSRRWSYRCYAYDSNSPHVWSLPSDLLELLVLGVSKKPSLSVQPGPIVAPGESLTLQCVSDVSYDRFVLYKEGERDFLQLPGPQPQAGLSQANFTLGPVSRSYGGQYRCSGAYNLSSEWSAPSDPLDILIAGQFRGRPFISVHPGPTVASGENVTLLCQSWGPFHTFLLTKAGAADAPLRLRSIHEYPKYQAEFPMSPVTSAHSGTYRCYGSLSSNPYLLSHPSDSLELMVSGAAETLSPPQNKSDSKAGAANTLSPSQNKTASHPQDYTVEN
T5 sequence (Q8NHL6 24-461 limits assumed): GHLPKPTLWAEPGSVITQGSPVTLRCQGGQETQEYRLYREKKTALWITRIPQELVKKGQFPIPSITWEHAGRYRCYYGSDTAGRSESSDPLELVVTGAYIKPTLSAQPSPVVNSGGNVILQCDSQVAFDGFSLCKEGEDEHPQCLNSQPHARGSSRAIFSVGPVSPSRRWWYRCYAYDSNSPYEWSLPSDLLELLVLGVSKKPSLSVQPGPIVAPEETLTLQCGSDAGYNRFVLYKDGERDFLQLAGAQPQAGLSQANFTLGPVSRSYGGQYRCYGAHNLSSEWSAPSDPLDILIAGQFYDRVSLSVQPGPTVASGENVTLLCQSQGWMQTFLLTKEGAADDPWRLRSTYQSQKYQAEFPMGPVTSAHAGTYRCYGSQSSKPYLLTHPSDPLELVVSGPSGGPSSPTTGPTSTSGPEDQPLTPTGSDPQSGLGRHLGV
T9 sequence (Q6PI73 24-447 limits assumed): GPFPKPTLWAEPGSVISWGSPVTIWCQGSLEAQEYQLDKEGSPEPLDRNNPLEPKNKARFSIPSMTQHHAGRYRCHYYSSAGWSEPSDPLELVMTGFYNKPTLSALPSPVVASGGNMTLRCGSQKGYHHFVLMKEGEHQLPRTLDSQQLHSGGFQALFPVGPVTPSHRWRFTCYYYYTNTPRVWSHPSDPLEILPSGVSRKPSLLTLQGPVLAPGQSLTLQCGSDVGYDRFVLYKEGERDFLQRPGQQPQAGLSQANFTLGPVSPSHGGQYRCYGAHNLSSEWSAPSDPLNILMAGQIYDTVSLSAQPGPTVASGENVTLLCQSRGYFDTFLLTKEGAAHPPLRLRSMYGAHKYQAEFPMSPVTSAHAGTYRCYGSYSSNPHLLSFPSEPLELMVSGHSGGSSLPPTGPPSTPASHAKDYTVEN
T6 sequence (Q8N423 22-460 limits assumed): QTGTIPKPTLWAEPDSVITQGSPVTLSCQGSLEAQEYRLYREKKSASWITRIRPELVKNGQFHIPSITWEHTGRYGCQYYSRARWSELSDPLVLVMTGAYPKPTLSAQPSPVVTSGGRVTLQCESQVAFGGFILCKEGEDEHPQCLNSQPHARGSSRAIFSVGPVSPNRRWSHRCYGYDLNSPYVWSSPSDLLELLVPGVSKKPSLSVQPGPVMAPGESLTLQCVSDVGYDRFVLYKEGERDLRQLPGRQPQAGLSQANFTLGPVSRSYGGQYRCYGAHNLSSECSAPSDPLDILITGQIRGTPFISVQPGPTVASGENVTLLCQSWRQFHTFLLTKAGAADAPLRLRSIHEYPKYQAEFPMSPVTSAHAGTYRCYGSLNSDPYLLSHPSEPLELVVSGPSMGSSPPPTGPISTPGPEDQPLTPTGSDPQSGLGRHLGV
T10 sequence (Q8N149 24-449 limits assumed): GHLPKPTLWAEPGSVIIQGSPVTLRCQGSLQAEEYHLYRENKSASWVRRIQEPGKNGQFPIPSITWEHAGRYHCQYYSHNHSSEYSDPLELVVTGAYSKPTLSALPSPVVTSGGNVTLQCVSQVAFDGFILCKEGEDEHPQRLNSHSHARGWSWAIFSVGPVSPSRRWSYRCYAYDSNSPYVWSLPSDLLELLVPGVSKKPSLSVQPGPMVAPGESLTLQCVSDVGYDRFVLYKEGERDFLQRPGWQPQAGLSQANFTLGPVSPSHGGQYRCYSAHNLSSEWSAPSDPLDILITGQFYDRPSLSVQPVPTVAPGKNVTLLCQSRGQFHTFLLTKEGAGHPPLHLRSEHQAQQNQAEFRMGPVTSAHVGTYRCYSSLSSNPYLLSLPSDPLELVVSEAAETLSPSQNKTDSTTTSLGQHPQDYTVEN
T3 sequence (P59901 24-446 limits assumed): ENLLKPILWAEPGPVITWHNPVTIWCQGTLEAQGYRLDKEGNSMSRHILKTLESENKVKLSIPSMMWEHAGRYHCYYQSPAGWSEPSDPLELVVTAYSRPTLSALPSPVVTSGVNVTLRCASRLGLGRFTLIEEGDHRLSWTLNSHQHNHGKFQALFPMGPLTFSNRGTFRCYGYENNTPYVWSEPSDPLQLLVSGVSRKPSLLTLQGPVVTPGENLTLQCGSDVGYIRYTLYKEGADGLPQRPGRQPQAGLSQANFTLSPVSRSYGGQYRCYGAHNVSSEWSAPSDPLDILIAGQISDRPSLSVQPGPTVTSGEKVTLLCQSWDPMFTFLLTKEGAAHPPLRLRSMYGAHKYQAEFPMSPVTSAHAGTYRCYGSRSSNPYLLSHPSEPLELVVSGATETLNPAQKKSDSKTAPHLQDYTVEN
T4 sequence (A6NI73 42-268 limits assumed): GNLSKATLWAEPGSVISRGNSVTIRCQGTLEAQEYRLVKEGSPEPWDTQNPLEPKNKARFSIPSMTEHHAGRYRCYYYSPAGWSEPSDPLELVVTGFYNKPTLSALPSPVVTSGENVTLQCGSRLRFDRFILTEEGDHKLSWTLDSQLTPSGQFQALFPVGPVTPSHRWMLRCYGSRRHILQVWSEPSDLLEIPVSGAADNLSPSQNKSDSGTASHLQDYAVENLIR
T8 sequence (Q8N6C8 24-439 limits assumed): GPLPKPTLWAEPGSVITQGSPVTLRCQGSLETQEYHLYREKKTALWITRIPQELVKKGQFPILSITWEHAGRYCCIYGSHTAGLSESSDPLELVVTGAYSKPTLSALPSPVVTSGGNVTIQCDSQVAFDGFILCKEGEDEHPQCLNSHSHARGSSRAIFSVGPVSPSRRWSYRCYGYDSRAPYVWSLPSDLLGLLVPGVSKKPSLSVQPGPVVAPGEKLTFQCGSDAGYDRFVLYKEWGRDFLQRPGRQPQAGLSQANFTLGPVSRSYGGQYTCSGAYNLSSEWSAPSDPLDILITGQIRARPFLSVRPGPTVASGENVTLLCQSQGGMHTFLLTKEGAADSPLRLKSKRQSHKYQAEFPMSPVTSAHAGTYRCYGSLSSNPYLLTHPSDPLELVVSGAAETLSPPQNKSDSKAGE

B1: 嵌合抗体CB-Ⅰ (MB-Ⅰ variable regions, human IgG1, Ck) (antibody)
heavy: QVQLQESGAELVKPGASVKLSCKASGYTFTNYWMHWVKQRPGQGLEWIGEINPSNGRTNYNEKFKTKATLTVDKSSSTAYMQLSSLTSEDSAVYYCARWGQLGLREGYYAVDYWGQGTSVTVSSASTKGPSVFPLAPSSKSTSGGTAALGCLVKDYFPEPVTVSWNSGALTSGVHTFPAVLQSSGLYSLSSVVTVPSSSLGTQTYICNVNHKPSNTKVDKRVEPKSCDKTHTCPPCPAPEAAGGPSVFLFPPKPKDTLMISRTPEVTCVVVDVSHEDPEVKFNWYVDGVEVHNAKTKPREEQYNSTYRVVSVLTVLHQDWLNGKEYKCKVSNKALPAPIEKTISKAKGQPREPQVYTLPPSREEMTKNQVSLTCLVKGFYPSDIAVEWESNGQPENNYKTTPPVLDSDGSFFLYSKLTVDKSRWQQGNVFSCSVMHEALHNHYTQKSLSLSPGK
light: DIVMTQSPSSLSASLGDRVTISCRASQDISNYLNWYQQKPDGTVKLLIYYTSRLHSGVPSRFSGSGSGTDYSLTISNLEQEDIATYFCQQGNTLPPTFGGGTKLEIKRTVAAPSVFIFPPSDEQLKSGTASVVCLLNNFYPREAKVQWKVDNALQSGNSQESVTEQDSKDSTYSLSSTLTLSKADYEKHKVYACEVTHQGLSSPVTKSFNRGEC
notes: also called CB-I
Binder B1 has an EC50 (LILRB4抗原 (人LILRB4蛋白胞外段) [1]) of 0.0655 µg/mL and an EC50 (THP-1细胞表面的LILRB4 [2]) of 0.445 µg/mL.

B2: 嵌合抗体CA-Ⅰ (MA-Ⅰ variable regions, human IgG1, Ck) (antibody)
heavy: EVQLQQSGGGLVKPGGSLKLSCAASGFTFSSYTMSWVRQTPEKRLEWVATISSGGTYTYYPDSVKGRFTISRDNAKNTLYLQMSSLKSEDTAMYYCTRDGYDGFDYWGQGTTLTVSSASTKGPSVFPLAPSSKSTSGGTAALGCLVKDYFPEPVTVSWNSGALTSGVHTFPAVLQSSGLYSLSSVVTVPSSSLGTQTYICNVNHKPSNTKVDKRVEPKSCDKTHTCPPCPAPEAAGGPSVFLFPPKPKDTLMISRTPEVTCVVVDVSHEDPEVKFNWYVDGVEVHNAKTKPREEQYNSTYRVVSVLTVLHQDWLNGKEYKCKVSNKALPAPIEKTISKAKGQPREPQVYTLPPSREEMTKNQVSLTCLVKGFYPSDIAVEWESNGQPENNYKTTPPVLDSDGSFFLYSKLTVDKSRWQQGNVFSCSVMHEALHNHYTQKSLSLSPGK
light: DIVMTQTTLSLPVSPGDQASISCRSSQSLAHSNGNTYLHWYLQKPGQSPKLLIYKVSNRFSGVPDRFSGSGSGTDFTLKISRVEAEDLGVYFCSQSTLVPTFGGGTKLEIKRTVAAPSVFIFPPSDEQLKSGTASVVCLLNNFYPREAKVQWKVDNALQSGNSQESVTEQDSKDSTYSLSSTLTLSKADYEKHKVYACEVTHQGLSSPVTKSFNRGEC
notes: also called CA-I
For B2, the EC50 (LILRB4抗原 (人LILRB4蛋白胞外段) [1]) was 0.0178 µg/mL and the EC50 (THP-1细胞表面的LILRB4 [2]) was 0.2 µg/mL.

B3: MB-Ⅰ 鼠源抗LILRB4单克隆抗体 (mouse IgG1, Ck) (antibody)
heavy: QVQLQESGAELVKPGASVKLSCKASGYTFTNYWMHWVKQRPGQGLEWIGEINPSNGRTNYNEKFKTKATLTVDKSSSTAYMQLSSLTSEDSAVYYCARWGQLGLREGYYAVDYWGQGTSVTVSSAKTTPPSVYPLAPGSAAQTNSMVTLGCLVKGYFPEPVTVTWNSGSLSSGVHTFPAVLQSDLYTLSSSVTVPSSTWPSETVTCNVAHPASSTKVDKKIVPRDCGCKPCICTVPEVSSVFIFPPKPKDVLTITLTPKVTCVVVDISKDDPEVQFSWFVDDVEVHTAQTQPREEQFNSTFRSVSELPIMHQDWLNGKEFKCRVNSAAFPAPIEKTISKTKGRPKAPQVYTIPPPKEQMAKDKVSLTCMITDFFPEDITVEWQWNGQPAENYKNTQPIMDTDGSYFVYSKLNVQKSNWEAGNTFTCSVLHEGLHNHHTEKSLSHSPG
light: DIVMTQSPSSLSASLGDRVTISCRASQDISNYLNWYQQKPDGTVKLLIYYTSRLHSGVPSRFSGSGSGTDYSLTISNLEQEDIATYFCQQGNTLPPTFGGGTKLEIKADAAPTVSIFPPSSEQLTSGGASVVCFLNNFYPKDINVKWKIDGSERQNGVLNSWTDQDSKDSTYSMSSTLTLTKDEYERHNSYTCEATHKTSTSPIVKSFNRNEC
notes: also called MB-I; 鼠源抗体MB-Ⅰ
B3 was tested, and the “IC50 of inhibition of ARG1 secretion by THP-1 cells with ApoE (arginase activity)” value (THP-1细胞表面的LILRB4 [3]) was 46 µg/mL, the EC50 (THP-1细胞表面的LILRB4 [4]) was 0.351 µg/mL and the EC50 (LILRB4抗原 (人LILRB4蛋白胞外段) [5]) was 0.0128 µg/mL. The IC50 (THP-1细胞表面的LILRB4 [6]) was 0.44 µg/mL, the binding result (LILRA4 [7]) was “no binding (tested: 50μg/mL)” and the binding result (LILRA5 [8]) was “no binding (tested: 50μg/mL)”. B3: no binding (tested: 50μg/mL) (LILRB1 [9]); no binding (tested: 50μg/mL) (LILRB2 [10]); no binding (tested: 50μg/mL) (LILRB3 [11]). B3: no binding (tested: 50μg/mL) (LILRA3 [12]); no binding (tested: 50μg/mL) (LILRA6 [13]); no binding (tested: 50μg/mL) (LILRA2 [14]). The binding result (LILRA1 [15]) was “no binding (tested: 50μg/mL)”, the binding result (LILRB5 [16]) was “no binding (tested: 50μg/mL)” and the “OD 450nm/630nm” value (LILRA4 [17]) was 0.028 OD. For the same binder, the “OD 450nm/630nm” value (LILRA5 [18]) was 0.045 OD, the “OD 450nm/630nm” value (LILRB1 [19]) was 0.038 OD and the “OD 450nm/630nm” value (LILRB2 [20]) was 0.055 OD. For the same binder, the “OD 450nm/630nm” value (LILRB4抗原 (人LILRB4蛋白胞外段) [21]) was 2.9 OD, the “OD 450nm/630nm” value (LILRB3 [22]) was 0.022 OD and the “OD 450nm/630nm” value (LILRA3 [23]) was 0.056 OD. The “OD 450nm/630nm” value (LILRA6 [24]) was 0.026 OD, the “OD 450nm/630nm” value (LILRA2 [25]) was 0.024 OD and the “OD 450nm/630nm” value (LILRA1 [26]) was 0.022 OD. For the same binder, the “OD 450nm/630nm” value (LILRB5 [27]) was 0.016 OD.

B4: 人源化抗体HA-Ⅱ (human IgG1, Ck) (antibody, V domains shown)
VH: EVQLVESGGGLVKPGGSLRLSCAASGFTFSSYTMSWVRQAPGKGLEWVATISSGGTYTYYPDSVKGRFTISRDNAKNSLYLQMNSLRAEDTAVYYCARDGYDGFDYWGQGTTVTVSS
VL: DIVMTQTPLSLSVTPGQPASISCRSSQSLAHSNGNTYLHWYLQKPGQSPQLLIYKVSNRFSGVPDRFSGSGSGTDFTLKISRVEAEDVGVYFCSQSTHVPTFGGGTKVEIKR
notes: also called HA-II
For B4, the EC50 (LILRB4抗原 (人LILRB4蛋白胞外段) [1]) was 0.0154 µg/mL, the “IC50, NF-κB luciferase reporter in THP-1-NF-κB-Luc cells stimulated with ApoE” value (THP-1细胞表面的LILRB4 [28]) was 2.68 µg/mL and the EC50 (THP-1细胞表面的LILRB4 [2]) was 0.179 µg/mL. For the same binder, the IC50 (THP-1细胞表面的LILRB4 [29]) was 2.75 µg/mL and the “IC50 of inhibition of ARG1 secretion by THP-1 cells with ApoE (arginase activity)” value (THP-1细胞表面的LILRB4 [30]) was 250 µg/mL.
